Measured values as given in the Human Domainome abundance scans (Beltran et al. 2025).
± gives the uncertainty stated by the source.

B1: Max-interacting protein 1, residues 70 to 120; numbered along this chain, P50539 (parent)
chain: STHNELEKNRRAHLRLCLERLKVLIPLGPDCTRHTTLGLLNKAKAHIKKLE

Variants of: B1
Experiment: abundance fitness (aPCA) (normalised: wild type 0, dead -1); higher = more abundant; growth selection in yeast, the domain comes from the species named
Details: Homo sapiens

Compared with STHNELEKNRRAHLRLCLERLKVLIPLGPDCTRHTTLGLLNKAKCHIKKLE [A45C], STHNELEKNRRAHLRLCLERLKVLIPLGPDCTRHTTLGLLNKAKPHIKKLE [A45P] is lower in abundance fitness: -0.25 ± 0.17 for the first, -0.631 ± 0.14 for the second.

STHNELEKNRRAHLRLCLERLKVLIPLGPDCTRHTTLGLLNKAKEHIKKLE [A45E] and STHNELEKNRRAHLRLCLERLKVLIPLGPDCTRHTTLGLLNKAKHHIKKLE [A45H] are within error of each other in abundance fitness: -0.136 ± 0.12 for the first, -0.168 ± 0.18 for the second.

STHNELEKNRRAHLRLCLERLKVLIPLGPDCTRHTTLGLLNKAKGHIKKLE [A45G] and STHNELEKNRRAHLRLCLERLKVLIPLGPDCTRHTTLGLLNKAKSHIKKLE [A45S] are within error of each other in abundance fitness: -0.447 ± 0.085 for the first, -0.262 ± 0.12 for the second.

Compared with STHNELEKNRRAHLRLCLERLKVLIPLGPDCTRHTTLGLLNKAKWHIKKLE [A45W], STHNELEKNRRAHLRLCLERLKVLIPLGPDCTRHTTLGLLNKAKNHIKKLE [A45N] is higher in abundance fitness: -0.483 ± 0.11 for the first, -0.023 ± 0.16 for the second.

First: STHNELEKNRRAHLRLCLERLKVLIPLGPDCTRHTTLGLLNKAKDHIKKLE [A45D]
Second: STHNELEKNRRAHLRLCLERLKVLIPLGPDCTRHTTLGLLNKAKLHIKKLE [A45L]
The abundance fitness of the first is lower: -0.617 ± 0.22 for the first, -0.097 ± 0.093 for the second.

Going from STHNELEKNRRAHLRLCLERLKVLIPLGPDCTRHTTLGLLNKAKQHIKKLE [A45Q] to STHNELEKNRRAHLRLCLERLKVLIPLGPDCTRHTTLGLLNKAKMHIKKLE [A45M], the abundance fitness falls from 0.085 ± 0.14 to -0.276 ± 0.12.

Compared with STHNELEKNRRAHLRLCLERLKVLIPLGPDCTRHTTLGLLNKAKTHIKKLE [A45T], STHNELEKNRRAHLRLCLERLKVLIPLGPDCTRHTTLGLLNKAKFHIKKLE [A45F] is lower in abundance fitness: -0.027 ± 0.14 for the first, -0.346 ± 0.15 for the second.

STHNELEKNRRAHLRLCLERLKVLIPLGPDCTRHTTLGLLNKAKVHIKKLE [A45V] and STHNELEKNRRAHLRLCLERLKVLIPLGPDCTRHTTLGLLNKAKIHIKKLE [A45I] are within error of each other in abundance fitness: -0.045 ± 0.09 for the first, 0.043 ± 0.16 for the second.

STHNELEKNRRAHLRLCLERLKVLIPLGPDCTRHTTLGLLNKAKRHIKKLE [A45R] and STHNELEKNRRAHLRLCLERLKVLIPLGPDCTRHTTLGLLNKAKKHIKKLE [A45K] are within error of each other in abundance fitness: -0.167 ± 0.087 for the first, -0.057 ± 0.13 for the second.

STHNELEKNRRAHLRLCLERLKVLIPLGPDCTRHTTLGLLNKDKAHIKKLE [A43D] and STHNELEKNRRAHLRLCLERLKVLIPLGPDCTRHTTLGLLNKKKAHIKKLE [A43K] are within error of each other in abundance fitness: -0.634 ± 0.17 for the first, -0.939 ± 0.22 for the second.

Compared with STHNELEKNRRAHLRLCLERLKVLIPLGPDCTRHTTLGLLNKQKAHIKKLE [A43Q], STHNELEKNRRAHLRLCLERLKVLIPLGPDCTRHTTLGLLNKCKAHIKKLE [A43C] is higher in abundance fitness: -0.74 ± 0.2 for the first, -0.133 ± 0.1 for the second.

Compared with STHNELEKNRRAHLRLCLERLKVLIPLGPDCTRHTTLGLLNKYKAHIKKLE [A43Y], STHNELEKNRRAHLRLCLERLKVLIPLGPDCTRHTTLGLLNKFKAHIKKLE [A43F] is higher in abundance fitness: -0.918 ± 0.26 for the first, -0.182 ± 0.12 for the second.

First: STHNELEKNRRAHLRLCLERLKVLIPLGPDCTRHTTLGLLNKHKAHIKKLE [A43H]
Second: STHNELEKNRRAHLRLCLERLKVLIPLGPDCTRHTTLGLLNKTKAHIKKLE [A43T]
The abundance fitness of the first is lower: -0.828 ± 0.17 for the first, -0.339 ± 0.11 for the second.

First: STHNELEKNRRAHLRLCLERLKVLIPLGPDCTRHTTLGLLNKGKAHIKKLE [A43G]
Second: STHNELEKNRRAHLRLCLERLKVLIPLGPDCTRHTTLGLLNKIKAHIKKLE [A43I]
The abundance fitness of the first is lower: -0.583 ± 0.085 for the first, -0.2 ± 0.14 for the second.

STHNELEKNRRAHLRLCLERLKVLIPLGPDCTRHTTLGLLNKNKAHIKKLE [A43N] and STHNELEKNRRAHLRLCLERLKVLIPLGPDCTRHTTLGLLNKWKAHIKKLE [A43W] are within error of each other in abundance fitness: -0.553 ± 0.17 for the first, -0.303 ± 0.11 for the second.

Compared with STHNELEKNRRAHLRLCLERLKVLIPLGPDCTRHTTLGLLNKSKAHIKKLE [A43S], STHNELEKNRRAHLRLCLERLKVLIPLGPDCTRHTTLGLLNKVKAHIKKLE [A43V] is higher in abundance fitness: -0.652 ± 0.11 for the first, -0.046 ± 0.086 for the second.

STHNELEKNRRAHLRLCLERLKVLIPLGPDCTRHTTLGLLNKPKAHIKKLE [A43P] and STHNELEKNRRAHLRLCLERLKVLIPLGPDCTRHTTLGLLNKEKAHIKKLE [A43E] are within error of each other in abundance fitness: -0.53 ± 0.13 for the first, -0.58 ± 0.13 for the second.

First: STHNELEKNRRAHLRLCLERLKVLIPLGPDCTRHTTLGLLNKAKAEIKKLE [H46E]
Second: STHNELEKNRRAHLRLCLERLKVLIPLGPDCTRHTTLGLLNKAKAAIKKLE [H46A]
The abundance fitness of the first is lower: -0.527 ± 0.14 for the first, 0.157 ± 0.11 for the second.

Compared with STHNELEKNRRAHLRLCLERLKVLIPLGPDCTRHTTLGLLNKAKAFIKKLE [H46F], STHNELEKNRRAHLRLCLERLKVLIPLGPDCTRHTTLGLLNKAKADIKKLE [H46D] is lower in abundance fitness: -0.456 ± 0.18 for the first, -0.973 ± 0.18 for the second.

Compared with STHNELEKNRRAHLRLCLERLKVLIPLGPDCTRHTTLGPLNKAKAHIKKLE [L39P], STHNELEKNRRAHLRLCLERLKVLIPLGPDCTRHTTLGHLNKAKAHIKKLE [L39H] is lower in abundance fitness: -0.597 ± 0.15 for the first, -1.15 ± 0.36 for the second.

Compared with STHNELEKNRRAHLRLCLERLKVLIPLGPDCTRHTTLGSLNKAKAHIKKLE [L39S], STHNELEKNRRAHLRLCLERLKVLIPLGPDCTRHTTLGVLNKAKAHIKKLE [L39V] is higher in abundance fitness: -0.707 ± 0.11 for the first, -0.257 ± 0.09 for the second.

STHNELEKNRRAHLRLCLERLKVLIPLGPDCTRHTTLGYLNKAKAHIKKLE [L39Y] and STHNELEKNRRAHLRLCLERLKVLIPLGPDCTRHTTLGTLNKAKAHIKKLE [L39T] are within error of each other in abundance fitness: -0.555 ± 0.16 for the first, -0.535 ± 0.16 for the second.

Compared with STHNELEKNRRAHLRLCLERLKVLIPLGPDCTRHTTLGWLNKAKAHIKKLE [L39W], STHNELEKNRRAHLRLCLERLKVLIPLGPDCTRHTTLGKLNKAKAHIKKLE [L39K] is lower in abundance fitness: 0.127 ± 0.096 for the first, -0.881 ± 0.16 for the second.

Going from STHNELEKNRRAHLRLCLERLKVLIPLGPDCTRHTTLGILNKAKAHIKKLE [L39I] to STHNELEKNRRAHLRLCLERLKVLIPLGPDCTRHTTLGQLNKAKAHIKKLE [L39Q], the abundance fitness falls from -0.07 ± 0.13 to -0.894 ± 0.18.

First: STHNELEKNRRAHLRLCLERLKVLIPLGPDCTRHTTLGRLNKAKAHIKKLE [L39R]
Second: STHNELEKNRRAHLRLCLERLKVLIPLGPDCTRHTTLGMLNKAKAHIKKLE [L39M]
The abundance fitness of the first is lower: -0.879 ± 0.1 for the first, -0.194 ± 0.11 for the second.

Work on STHNELEKNRRAHLRLCLERLKVLIPLGPDCTRHTTLGNLNKAKAHIKKLE [L39N] yielded an abundance fitness of -1 ± 0.17.
